Measurements reported in paper PMC3437054.

What was measured:
[1] = biological target: PCNA (Saccharomyces cerevisiae) (UniProt P15873); details: cited from earlier work
[2] = biological target: Replication factor C (RFC-A/B/C/D/E) (Saccharomyces cerevisiae, UniProt P38630;P40339;P38629;P40348;P38251 1-861;1-323;1-340;1-353;1-354); assay: stopped-flow TAMRA fluorescence
[3] = biological target: Replication factor C (RFC-A/B/C/D/E);PCNA (wild type) (Saccharomyces cerevisiae;Saccharomyces …, UniProt P38630;P40339;P38629;P40348;P38251;P15873 1-861;1-323;1-340;1-353;1-354;1-258, |); assay: fluorescence intensity

Molecule | Kd [1] [nM] | binding result [2] | Kd [3] [nM]
RFC (from UniProt P38630) | 1 | – | –
40/65-nt ptDNA-TAMRA (mixed, 3' amino linker on primer) DNA 1: ATTTCCTTCAGCAGATAGGAACCATACTGATTCACATGGC DNA 2: TAGTTAGAACCTAAGCATATTAGTAGCCATGTGAATCAGTATGGTTCCTATCTGCTGAAGGAAAT | – | binds | 1
